The record followed here is patent US20060148016A1.

For the experiment, the target named is Alexa Fluor 594 labelled calmodulin (Molecular Probes). Briefly: gel filtration assay (Example 3): Alexa Fluor 594 labelled calmodulin eluting with the particles; reference is ferritin particles without binding molecule.

“Ferritin based particles expressing cbp on their surface (CBP-Human ferritin light chain fusion protein, plasmid pCBPHFI) (from UniProt P02792 2-175) (peptide)” showed a fold signal as compared to particles produced with pET-26(+)rHuLFt of 4.1 fold.
